Columns and labels:
[1] = molecular target: GST-H1.2 wild type (human) (UniProt P16403); assay: pull-down; GST-H1.2 attached to glutathione beads, FITC-conjugated H3 peptides in solution; increasing KCl from 100 to 400 mM (Fig. S1A)
[2] = molecular target: Flag-tagged K27-mutated (K27R) H3 (in mononucleosomes) (human) (UniProt P68431); assay: co-IP; MCF7 cells transfected with Flag-H3 WT or K27R; mononucleosomes by MNase digestion, immunoprecipitated with Flag antibody; Western blot with H1.2 antibody (Fig. 2A)

**Q.** For FITC-conjugated H3K27me1 peptide, which fold weaker interaction than the H3K27me3 peptide at elevated KCl [1] is on record?
**A.** Its fold weaker interaction than the H3K27me3 peptide at elevated KCl is 3 fold.

**Q.** For FITC-conjugated H3K27me2 peptide, which fold weaker interaction than the H3K27me3 peptide at elevated KCl [1] is on record?
**A.** The fold weaker interaction than the H3K27me3 peptide at elevated KCl was 3 fold.

**Q.** With “linker histone H1.2 (endogenous) (from UniProt P16403 1-213) (natural protein)” as the substance, how does the fold reduction of the interaction against wild type H3 nucleosomes [2] read?
**A.** The fold reduction of the interaction against wild type H3 nucleosomes was 2.5 fold.

**Q.** With FITC-conjugated H3K27me0 peptide as the substance, how does the fold weaker interaction than the H3K27me3 peptide at elevated KCl [1] read?
**A.** The fold weaker interaction than the H3K27me3 peptide at elevated KCl was 3 fold.

Reference: PMC4652225
